Consider 1 molecule from PMC11490872, “Drug-resistant menin variants retain high binding affinity and interactions with MLL1” (The Journal of Biological Chemistry, 2024).

In one assay the target is T1, menin^M327I (Homo sapiens, UniProt O00255, M322I).
T1 construct: The gene encoding full-length human menin was cloned into a pET32a expression vector; thioredoxin-His6 (cleaved yes); made in house; host or cells: E. coli BL21(DE3)
T1 sequence (O00255 1-610 M322I): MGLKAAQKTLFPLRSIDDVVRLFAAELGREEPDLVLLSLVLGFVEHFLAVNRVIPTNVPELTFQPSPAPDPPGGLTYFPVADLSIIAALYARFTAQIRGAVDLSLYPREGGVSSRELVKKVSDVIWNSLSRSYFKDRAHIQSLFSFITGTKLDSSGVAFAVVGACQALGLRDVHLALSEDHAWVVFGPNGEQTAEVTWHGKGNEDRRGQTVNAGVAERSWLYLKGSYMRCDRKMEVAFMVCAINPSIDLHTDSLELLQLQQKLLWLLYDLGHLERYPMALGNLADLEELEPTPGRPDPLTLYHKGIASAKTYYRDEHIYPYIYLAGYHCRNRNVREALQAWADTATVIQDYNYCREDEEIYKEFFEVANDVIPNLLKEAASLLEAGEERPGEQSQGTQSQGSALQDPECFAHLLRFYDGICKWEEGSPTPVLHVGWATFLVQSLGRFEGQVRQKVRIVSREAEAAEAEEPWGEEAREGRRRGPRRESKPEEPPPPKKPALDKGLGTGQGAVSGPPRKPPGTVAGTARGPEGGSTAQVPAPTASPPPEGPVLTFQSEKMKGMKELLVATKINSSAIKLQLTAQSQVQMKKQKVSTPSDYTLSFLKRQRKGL
Kind of assay: ITC binding of MLL1 fragments to menin^M327I. As to the method:
(§1) Menin and MLL1 fragments were dialyzed at 4 °C against a 50 mM sodium phosphate pH 7.5, 50 mM NaCl, 1 mM TCEP buffer, and degassed prior to measurement. The titrations were performed using the VP-ITC system (MicroCal) at 25 °C. The calorimetric cell, which contained menin (concentrations in the 5–10 μM range), was titrated with the MLL1^160 and MLL1^4-15 derived peptides (concentration range 40–100 μM) injected in 10-μL aliquots. Data was analyzed using Origin 7.0 (OriginLab) to obtain Kd, stoichiometry, entropy, and enthalpy ([2]). Experiments with WT, M327I, T349M, and G331R menin and MLL1^160 or MLL1^4-15 were run in duplicate. Experiments with G331D menin and MLL1^160 were run in duplicate while experiments with G331D and MLL1^4-15 were run in quadruplicate.

The target in a further assay is T2, menin^G331R (Homo sapiens, UniProt O00255, G326R).
T2 construct: The gene encoding full-length human menin was cloned into a pET32a expression vector; thioredoxin-His6 (cleaved yes); made in house; host or cells: E. coli BL21(DE3)
T2 sequence (O00255 1-610 G326R): T1 sequence (O00255 1-610 M322I) with I322M, G326R
Kind of assay: ITC binding of MLL1 fragments to menin^G331R. On the procedure:
as §1

The target of the next assay is T3, menin^G331D (Homo sapiens, UniProt O00255, G326D).
T3 construct: The gene encoding full-length human menin was cloned into a pET32a expression vector; thioredoxin-His6 (cleaved yes); made in house; host or cells: E. coli BL21(DE3)
T3 sequence (O00255 1-610 G326D): T1 sequence (O00255 1-610 M322I) with I322M, G326D
The experiment in a line: ITC binding of MLL1 fragments to menin^G331D. On the procedure: as §1

Setting [1] is: ITC, representative binding isotherm Fig. 1A, 25 °C, read-out: Kd.

Where a chain is given by its changes, count along the chain named. Like-named read-outs stand apart in the source and are kept apart here.

B1: MLL1^160: N-terminal 160 amino acids of human MLL1, Cys2 mutated to alanine, recombinant (protein)
chain: MAHSARWRFPARPGTTGGGGGGGRRGLGGAPRQRVPALLLPPGPPVGGGGPGAPPSPPAVAAAAAAAGSSGAGVPGGAAAASAASSSSASSSSSSSSSASSGPALLRVGPGFDAALQVSAAIGTNLRRFRAVFGESGGGGGSGEDEQFLGFGSDEEVRVR
modifications: The printed 'Cys2' is the single N-terminal cysteine, Cys5 in the entry (peptide S4-A5-R6); Trx-His6 tag cleaved
Take B1: the Kd (as a rule, the constant that tells how readily two partners part at equilibrium) came to 2.2 ± 0.6 nM with menin^M327I (ITC summary Fig. 1B, values marked *, n = 2, read-out: M327I Kd (nM), ITC); 2.2 ± 0.6 nM with menin^M327I (setting [1]); 1.3 ± 0.3 nM with menin^G331R (ITC summary Fig. 1B, values marked *, n = 2, read-out: G331R Kd (nM), ITC); 1.1 ± 0.3 nM with menin^G331R (setting [1]); 1.4 ± 0.7 nM with menin^G331D (ITC summary Fig. 1B, * n = 2, ^ n = 4, read-out: G331D Kd (nM), ITC); 1.4 ± 0.7 nM in the assay with menin^G331D (setting [1]).
